1 molecule from paper PMC9209732, “Transcriptional Regulation of ING5 and its Suppressive Effects on Gastric Cancer” can be followed below.

The target in this data set is YY1 (UniProt P25490 1-414). Description: EMSA; EMSA: 5-10 ug protein, 50 nM probe, 5% non-denaturing PAGE, streptavidin-HRP/ECL; buffer, salt, pH and temperature not stated. As to conditions: protein: recombinant; tags: His (GST also stated in Results); label: 3' biotin; blunt.
YY1, sequence (P25490 whole entry): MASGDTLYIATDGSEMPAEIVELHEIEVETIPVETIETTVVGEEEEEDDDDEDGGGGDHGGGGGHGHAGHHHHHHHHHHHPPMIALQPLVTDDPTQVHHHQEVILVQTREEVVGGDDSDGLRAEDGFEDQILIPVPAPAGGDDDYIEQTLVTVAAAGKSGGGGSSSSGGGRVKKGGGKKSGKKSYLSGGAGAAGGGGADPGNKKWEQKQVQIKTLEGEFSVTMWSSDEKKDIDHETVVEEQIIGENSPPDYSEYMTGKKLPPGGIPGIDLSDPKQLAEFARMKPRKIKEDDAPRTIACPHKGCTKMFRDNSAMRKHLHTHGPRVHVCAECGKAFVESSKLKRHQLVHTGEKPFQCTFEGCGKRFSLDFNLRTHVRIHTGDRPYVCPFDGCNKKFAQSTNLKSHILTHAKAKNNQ

B1: ING5 promoter probe (-48 to 25) (dsDNA)
DNA 1: CGCTGGCACCGCCCCGCCCCCGCCTCCCGCGGCACCGCCCGCCCGCGCAGACCCCGAGCGCGGCCGCGGACGAA
DNA 2: TTCGTCCGCGGCCGCGCTCGGGGTCTGCGCGGGCGGGCGGTGCCGCGGGAGGCGGGGGCGGGGCGGTGCCAGCG
As for B1, the binding result was “binds”.
